Test results as given in patent US20240059770A1 (Eli Lilly, published 2024).

Biological target: T1, human oxyntomodulin (53-89) (human)
T1 construct: also called synthetic human oxyntomodulin
T1 peptide: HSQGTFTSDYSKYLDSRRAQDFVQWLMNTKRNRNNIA
Test: SPR (Biacore T100), antibody captured by anti-mouse IgG, oxyntomodulin 1.1-90 nmol/L as analyte, 1:1 model
Procedure: Kinetic analysis and binding specificity of the N-Terminal Antibody and the C-Terminal Antibody are determined by surface plasmon resonance using Biacore T100 (GE Healthcare Life Sciences). Goat anti-mouse IgG antibody (Southern Biotech) is immobilized on a Series S CM5 sensor chip and used to capture approximately 1500 response units of anti-oxyntomodulin IgG. Binding to duplicate injections of various concentrations of human oxyntomodulin (SEQ ID NO: 25) (1.1 to 90 nmol/L) diluted in running buffer (HEPES buffered saline containing 3 mmol/L EDTA and 0.05% Tween) and 22.5 nmol/L of either human glicentin span (49-89) (SEQ ID NO: 29) or human glucagon (53-81) (SEQ ID NO: 30) peptides are measured with a flow rate of […]. Kinetic constants are determined using 1:1 binding model with the T100 Evaluation software.
Using Biacore analysis of the N-Terminal Antibody, the equilibrium dissociation constant is 1.5×10⁻¹⁰ mol/L (Table 2).

B1: Anti-Human Oxyntomodulin C-Terminal Antibody (antibody, V domains shown)
VH: QVQVQQSGAELVMPGTSVKLSCKASGYNFTNYWLHWVKQRPGQGLEWIGELDPEYGFANYNQKFKGKATLTVDKSSSTAYMQLSSLTSEDSAVYYCSAGFMDYWGQGTSVTVSS
VL: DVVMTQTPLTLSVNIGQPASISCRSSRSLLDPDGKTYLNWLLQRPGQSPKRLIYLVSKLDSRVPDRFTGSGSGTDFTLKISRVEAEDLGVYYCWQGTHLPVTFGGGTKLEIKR
notes: In SPR it was captured as IgG by goat anti-mouse IgG; In the sandwich immunoassay it was biotin-labelled and held on streptavidin plates; also called capture antibody
B1 was tested, and the Kd was 0.083 nM, the koff was 0.00086 s⁻¹ and the kon was 1e+07 M⁻¹ s⁻¹.

B2: Anti-Human Oxyntomodulin N-Terminal Antibody (antibody, V domains shown)
VH: QIQLVQSGPELKKPGETVKISCKASGYTFTDYAFSWVKQAPGKGLKWMGWITTNTGEATYADDFKGRFAFSLETSASTAYLQISNLKNEDTATYFCARETEYGDSSWFGHWGQGTLVTVSA
VL: DIVLTQSPASLAVSLGQRATISCRASESVDGWGNSFMHWYQQKPGQPPKLLIYLATYRVAGIPARFSGSGSRTDFTLTINPVEADDVATYYCMQSSEDPYTFGGGTKLEIKR
notes: In SPR it was captured as IgG by goat anti-mouse IgG; In the sandwich immunoassay it was ruthenium-labelled; also called detection antibody
With B2 the Kd was 0.15 nM, the koff was 0.001 s⁻¹ and the kon was 7.2e+06 M⁻¹ s⁻¹.
